# Assay results: the RNAGym collection of RNA variant scans (doi:10.7554/elife.80360)
# B1: Hairpin Ribozyme (parent)
# chain: GUCCUCUUUCACGUGCGCGUGAAAGAGAGAAGUGAACCAGAGAAACACACGUUGUGGUAUAUUACCUGGUA
# Variants of: B1
# Experiment: self-cleavage, relative activity (ratio to wild type); higher = more cleavage; co-transcriptional
row,Variant,self-cleavage
1,A30C A39G,0.1
2,G27U C66U,0.288
3,G27U C66G,0.126
4,G29U U60C,0.107
5,A28G C37G,0.36
6,A28G C37A,0.504
7,A28G U67A,0.31
8,G27C C65U,0.159
9,A28G A39G,0.357
10,G27C G54A,0.133
11,A28G A47C,0.42
12,A28G A47U,0.192
13,A28U U70C,0.394
14,A28C U58A,0.401
15,A28C U58G,0.151
16,A28G C38U,0.547
17,A28G C38A,0.168
18,A28G C38G,0.169
19,A30C C46U,0.367
20,G29U U63A,0.146
21,G29C G32C,0.128

row,Variant,self-cleavage
1,G29C G32A,0.167
2,G29C G32U,0.121
3,G29A C37A,0.107
4,G29A C37U,0.134
5,G29A C37G,0.103
6,G27C G56C,0.134
7,G29U U62G,0.0909
8,G29U C65A,0.139
9,G27U A39C,0.107
10,G27U A39U,0.144
11,G29C A39G,0.0911
12,G29C A39C,0.106
13,G29C A59U,0.207
14,A30C U33A,0.0224
15,A28C U33C,0.107
16,G27U A41U,0.554
17,G27U A41G,0.305
18,G29U A35U,0.117
19,A28C G40U,0.101
20,A28C G40C,0.0679
21,G27U A49U,0.141

row,Variant,self-cleavage
1,G29U A61U,0.0881
2,G27U U60G,0.0793
3,A28U A30U,0.136
4,G29C U55C,0.127
5,A28G C65G,0.409
6,A28G C65A,0.884
7,G29C A44G,0.243
8,G29U A49U,0.0858
9,A28G U53G,1.13
10,A28G U53A,1.01
11,A28G U53C,1.06
12,A28U U33G,0.104
13,A28G G57A,0.19
14,A28G G57U,0.36
15,G29C G69U,0.119
16,G29C G69A,0.0986
17,A28G A44U,0.142
18,A28C C50A,0.151
19,A28C C50G,0.107
20,G27C U63A,0.174
21,G27C U63C,0.222

row,Variant,self-cleavage
1,A28C A43G,0.129
2,G27U U62C,0.191
3,A28U U58G,0.416
4,A30C A47C,0.156
5,A28C C65G,0.229
6,G29A A59U,0.162
7,A30C A31G,0.141
8,A30C A31C,0.159
9,G29C G51U,0.141
10,A28U G42U,0.218
11,A28U G42C,0.0977
12,A28G C46G,0.134
13,G27C U70C,0.132
14,G27C U70A,0.319
15,A28C A31C,0
16,A28G G42A,0.21
17,G27U A64U,0.129
18,G27U A64C,0.173
19,A30C,0.183
20,G29A U70G,0.182
